Where a chain is given by its changes, count along the chain named.
B1: wt rePON1-192K (enzyme)
chain: MAKLTALTLLGLGLALFDGQKSSFQTRFNVHREVTPVELPNCNLVKGVDNGSEDLEILPNGLAFISSGLKYPGIMSFDPDKSGKILLMDLNEEDPVVLELGITGNTLDISSFNPHGISTFTDEDNTVYLLVVNHPDSSSTVEVFKFQEEEKSLLHLKTIRHKLLPSVNDIVAVGPEHFYATNDHYFADPYLKSWEMHLGLAWSFVTYYSPNDVRVVAEGFDFANGINISPDGKYVYIAELLAHKIHVYEKHANWTLTPLKSLDFDTLVDNISVDPVTGDLWVGCHPNGMRIFYYDPKNPPGSEVLRIQDILSEEPKVTVVYAENGTVLQGSTVAAVYKGKLLIGTVFHKALYCEL
B2: rePON1-192R (enzyme)
chain: B1 chain with K192R
B3: rePON1-192Q (enzyme)
chain: B1 chain with K192Q

biological target: rHDL-apoA-I (reconstituted discoidal HDL particles carrying apolipoprotein A-I); assay: cell-based or functional assay

| Binder | increase of cholesterol efflux from macrophages relative to rHDL-apoA-I alone |
| --- | --- |
| B1 | 93% |
| B2 | 67% |
| B3 | 30% |
